Article PMC6413200

Target: pGE-LysRS-6xhis-SPARC fusion protein (not stated | Clonorchis sinensis)
Assay: SEC; Ni-affinity fractions on a Superdex 200 Increase 10/300 GL or a Superose 6 Increase 10/300 column; 50 mM Tris-Cl (pH 7.5), 300 mM NaCl; 0.3 mL/min; molecular weight estimated from elution; samples from sonication and from mild lysis

## pGE-LysRS-6xhis-SPARC fusion protein
  stoichiometry N: 2
